Molecular target: T1, CK8 recombinant protein (human cytokeratin 8, tag sequence included) (human, UniProt P05787 1-483)
T1 construct: Expressed in E. coli BL21(DE3) as inclusion bodies, dissolved in 8 M urea/PBS; also called KRT8 Keratin, type II cytoskeletal 8
T1 sequence (looked up): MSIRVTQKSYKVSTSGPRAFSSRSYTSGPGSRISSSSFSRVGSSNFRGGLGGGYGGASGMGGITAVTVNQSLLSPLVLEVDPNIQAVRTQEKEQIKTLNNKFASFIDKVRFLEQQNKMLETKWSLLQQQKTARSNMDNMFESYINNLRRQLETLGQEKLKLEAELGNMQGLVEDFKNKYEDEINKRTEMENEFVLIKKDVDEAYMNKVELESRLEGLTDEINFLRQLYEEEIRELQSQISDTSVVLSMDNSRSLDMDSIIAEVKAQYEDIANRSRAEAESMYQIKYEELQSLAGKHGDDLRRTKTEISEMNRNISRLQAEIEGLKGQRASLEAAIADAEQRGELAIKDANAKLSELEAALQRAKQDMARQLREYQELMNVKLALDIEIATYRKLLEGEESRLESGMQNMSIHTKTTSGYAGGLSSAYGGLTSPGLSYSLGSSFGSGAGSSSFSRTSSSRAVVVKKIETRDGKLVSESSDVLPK
Experiment: overlay of recombinant protein solution (50 µg/ml) on blotted partner protein, read out by TAB-K94 reactivity

binding result: binds
B1: CK18 recombinant protein (human cytokeratin 18, tag sequence included) (other, UniProt P05783 1-430, looked up, not shown: small tags and cut ends)
chain: MSFTTRSTFSTNYRSLGSVQAPSYGARPVSSAASVYAGAGGSGSRISVSRSTSFRGGMGSGGLATGIAGGLAGMGGIQNEKETMQSLNDRLASYLDRVRSLETENRRLESKIREHLEKKGPQVRDWSHYFKIIEDLRAQIFANTVDNARIVLQIDNARLAADDFRVKYETELAMRQSVENDIHGLRKVIDDTNITRLQLETEIEALKEELLFMKKNHEEEVKGLQAQIASSGLTVEVDAPKSQDLAKIMADIRAQYDELARKNREELDKYWSQQIEESTTVVTTQSAEVGAAETTLTELRRTVQSLEIDLDSMRNLKASLENSLREVEARYALQMEQLNGILLHLESELAQTRAEGQRQAQEYEALLNIKVKLEAEIATYRRLLEDGEDFNLGDALDSSNSMQTIQKTTTRRIVDGKVVSETNDTKVLRH
notes: Expressed in E. coli BL21(DE3) as inclusion bodies, dissolved in 8 M urea/PBS; also called KRT18 Keratin, type I cytoskeletal 18
